The target in one series is NM23-H2 wild-type (UniProt P22392 1-152). Nature of the series: ELISA.
Series [1] addresses T1, NM23-H2 D54A/D121A (UniProt P22392 1-152, D54A;D121A). Briefly: filter binding.
In series [2] the target is T2, NM23-H2 D121A (UniProt P22392 1-152, D121A). Briefly: filter binding.
In series [3] the target is T3, NM23-H2 D54A/D121A/F60A (UniProt P22392 1-152, D54A;F60A;D121A). Briefly: filter binding.
Series [4] has as its target T4, NM23-H2 G113F (UniProt P22392 1-152, G113F). Briefly: filter binding.
The target in series [5] is T1, NM23-H2 D54A/D121A. Briefly: EMSA.
Series [6] deals with T2, NM23-H2 D121A. Nature of the series: EMSA. (In EMSA bound probe runs differently from free probe, usually more slowly.)
In series [7] the target is T3, NM23-H2 D54A/D121A/F60A. Briefly: EMSA.
Series [8] has as its target T4, NM23-H2 G113F. Briefly: EMSA.

T4 sequence (P22392 whole entry G113F): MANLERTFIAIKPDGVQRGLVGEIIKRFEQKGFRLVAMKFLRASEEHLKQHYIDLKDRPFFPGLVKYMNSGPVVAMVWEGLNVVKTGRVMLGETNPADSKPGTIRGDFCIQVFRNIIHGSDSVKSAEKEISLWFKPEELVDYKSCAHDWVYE
T3 sequence (P22392 whole entry D54A/F60A/D121A): as the sequence (P22392 whole entry G113F) above, with D54A, F60A, F113G, D121A counted along it
T1 sequence (P22392 whole entry D54A/D121A): as the sequence (P22392 whole entry G113F) above, with D54A, F113G, D121A counted along it
T2 sequence (P22392 whole entry D121A): as the sequence (P22392 whole entry G113F) above, with F113G, D121A counted along it
NM23-H2 wild-type, sequence (P22392 whole entry): as the sequence (P22392 whole entry G113F) above, with F113G counted along it

What is called Kd is the free concentration of one partner at which half of the binding sites on the other are occupied at equilibrium, for simple one-to-one binding. Take AGGGTGGGGAGGGTGGGG (structured_DNA) [c-MYC Pu18 G-quadruplex]: the Kd with NM23-H2 wild-type worked out at 530 ± 18 nM.

As to TGGGGAGGGTGGGGAGGGTGGGGAAGG (ssDNA) [SS-Pu27 (biotin)], the binding result in the series with NM23-H2 D54A/D121A [1], with NM23-H2 D121A [2], with NM23-H2 D54A/D121A/F60A [3] and in the series with NM23-H2 G113F [4] was “no binding” throughout.

As for TGGGGAGGGTGGGGAGGGTGGGGAAGG (ssDNA) [c-MYC Pu27 (FAM)], the binding result with NM23-H2 D54A/D121A [5], in the series with NM23-H2 D121A [6], with NM23-H2 D54A/D121A/F60A [7] and in the series with NM23-H2 G113F [8] was “no binding” each time.

Values taken from PMC4538829.
